{"source": "the RNAGym collection of RNA variant scans (doi:10.1073/pnas.2313332121)", "parents": {"B1": {"name": "TPR 5TU (parent)", "chain": "GGAUCUUCUCGAUCUAACAAAAAAGACAAAUCUGCCACAAAGCUUGAGAGCAUCUUCGGAUGCAGAGGCGGCAGCCUUCGGUGGCGCGAUAGCGCCAACGUUCUCAACUAUGACACGCAAAACGCGUGCUCCGUUGAAUGGAGUUUAUCAUG"}}, "note": "Fewer inactive variants are shown than the library holds.", "data": [{"variants_of": "B1", "test": "polymerase ribozyme fitness, log enrichment relative to wild type (log ratio); higher = more active; in vitro selection for triplet polymerase activity", "method_in_brief": "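A single round of triplicate in vitro selection, including frozen incubation at −7 °C, was applied to PCR-built, transcribed mutant libraries of each subunit of a heterodimeric triplet polymerase ribozyme. Illumina sequencing of input and output libraries retained genotypes with ≥10 input reads and ≥1 read per output. Fitness is the base-2 logarithm of genotype enrichment divided by wild-type enrichment, from inverse-variance-weighted replicate averages.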", "values": [{"variant": "C14U C35U C85U A106G A115G", "polymerase ribozyme fitness (log ratio)": -3.81}, {"variant": "C14G C95U", "polymerase ribozyme fitness (log ratio)": -1.57}, {"variant": "C14G C32G G141U A147C", "polymerase ribozyme fitness (log ratio)": "≤ -4.2"}, {"variant": "C14U C54U G68C G84C C87G A91C A147C", "polymerase ribozyme fitness (log ratio)": "≤ -4.2"}, {"variant": "C14U C18A A28U C54A A91G U148G", "polymerase ribozyme fitness (log ratio)": "≤ -4.2"}, {"variant": "C14U C79A G84A A150G", "polymerase ribozyme fitness (log ratio)": "≤ -4.2"}, {"variant": "C14G C63U G67C U77A C85A G124C", "polymerase ribozyme fitness (log ratio)": "≤ -4.2"}, {"variant": "C14G C18U C57U G65A G83A A106C G117U", "polymerase ribozyme fitness (log ratio)": "≤ -4.2"}, {"variant": "C14G U56A C85G G92A", "polymerase ribozyme fitness (log ratio)": "≤ -4.2"}, {"variant": "C14U A29U G71A G88C C93A", "polymerase ribozyme fitness (log ratio)": "≤ -4.2"}, {"variant": "C14G U31A G136A", "polymerase ribozyme fitness (log ratio)": -2.23}, {"variant": "C14U C27U U90C A91U C116G", "polymerase ribozyme fitness (log ratio)": -3.77}, {"variant": "C14G C36U G92C", "polymerase ribozyme fitness (log ratio)": "≤ -4.2"}, {"variant": "C14G G50C A66G C85G A106G", "polymerase ribozyme fitness (log ratio)": "≤ -4.2"}, {"variant": "C14G G133U", "polymerase ribozyme fitness (log ratio)": "≤ -4.2"}, {"variant": "C14U A28U C96G", "polymerase ribozyme fitness (log ratio)": "≤ -4.2"}, {"variant": "C14G U53A C54A U61G G62U U146C", "polymerase ribozyme fitness (log ratio)": "≤ -4.2"}, {"variant": "C14U C87U C99U U101G A137C U145G", "polymerase ribozyme fitness (log ratio)": "≤ -4.2"}, {"variant": "C14G C96U", "polymerase ribozyme fitness (log ratio)": -2.21}, {"variant": "C14U A115G", "polymerase ribozyme fitness (log ratio)": -2.56}, {"variant": "C14U C87A", "polymerase ribozyme fitness (log ratio)": "≤ -4.2"}, {"variant": "C14U C87U", "polymerase ribozyme fitness (log ratio)": -2.18}, {"variant": "C14G C18U A52G G81U G92A C131G", "polymerase ribozyme fitness (log ratio)": "≤ -4.2"}, {"variant": "C14G U15C C51U G68A G83A U90G C149G", "polymerase ribozyme fitness (log ratio)": "≤ -4.2"}, {"variant": "C14G C93A", "polymerase ribozyme fitness (log ratio)": -3.68}, {"variant": "C14G A73G C79G A98G G143C", "polymerase ribozyme fitness (log ratio)": "≤ -4.2"}, {"variant": "C14U A20C U33A C93G C103G C118U", "polymerase ribozyme fitness (log ratio)": "≤ -4.2"}, {"variant": "C14G C85G C131A", "polymerase ribozyme fitness (log ratio)": "≤ -4.2"}, {"variant": "C14U C87U U101C C118G", "polymerase ribozyme fitness (log ratio)": -3.29}, {"variant": "C14U C18A A19C A22G C93A A120C U139C G143U", "polymerase ribozyme fitness (log ratio)": "≤ -4.2"}, {"variant": "C14U C54G C93A C95G A150G", "polymerase ribozyme fitness (log ratio)": "≤ -4.2"}, {"variant": "C14U C63U C85A A115G", "polymerase ribozyme fitness (log ratio)": -3.56}, {"variant": "C14G U78A G86A", "polymerase ribozyme fitness (log ratio)": "≤ -4.2"}, {"variant": "C14G C69G C96A G124A", "polymerase ribozyme fitness (log ratio)": -3.69}, {"variant": "C14G G83A U90G G92U U102G C105A C118U A120C U146G", "polymerase ribozyme fitness (log ratio)": "≤ -4.2"}, {"variant": "C14U A26U C54U C79U G94A U111G C123U", "polymerase ribozyme fitness (log ratio)": "≤ -4.2"}, {"variant": "C14G G59A A73U C87G", "polymerase ribozyme fitness (log ratio)": "≤ -4.2"}, {"variant": "C14G C18U", "polymerase ribozyme fitness (log ratio)": -1.18}, {"variant": "C14G G88C A137U", "polymerase ribozyme fitness (log ratio)": "≤ -4.2"}, {"variant": "C14U C57U", "polymerase ribozyme fitness (log ratio)": -1.27}, {"variant": "C14U C76A C85U", "polymerase ribozyme fitness (log ratio)": -2.67}, {"variant": "C14U C57G C85U G152A", "polymerase ribozyme fitness (log ratio)": -3.89}, {"variant": "C14G G48C A49G U53A G92U C93U A107U", "polymerase ribozyme fitness (log ratio)": "≤ -4.2"}, {"variant": "C14U A17C C35G G141C U151A", "polymerase ribozyme fitness (log ratio)": "≤ -4.2"}, {"variant": "C14G C99G", "polymerase ribozyme fitness (log ratio)": -3.32}, {"variant": "C14U A41C C75G G84U C118A", "polymerase ribozyme fitness (log ratio)": "≤ -4.2"}, {"variant": "C14G G65U G67U G133A U135A", "polymerase ribozyme fitness (log ratio)": "≤ -4.2"}, {"variant": "C14U A17U A28G U44A A73G C95A G100U A106G A115G", "polymerase ribozyme fitness (log ratio)": "≤ -4.2"}, {"variant": "C14G C32G", "polymerase ribozyme fitness (log ratio)": -4.17}, {"variant": "C14G C18U C38U U53C G58A U90G C93G A115C C118U A137U", "polymerase ribozyme fitness (log ratio)": "≤ -4.2"}, {"variant": "C14U C35A A40G G84A", "polymerase ribozyme fitness (log ratio)": "≤ -4.2"}, {"variant": "C14G C87U G141A", "polymerase ribozyme fitness (log ratio)": -2.56}, {"variant": "C14U A21G A29G C85U C116A", "polymerase ribozyme fitness (log ratio)": -4.2}, {"variant": "C14G C75U G94C A122U G124A", "polymerase ribozyme fitness (log ratio)": -3.86}, {"variant": "C14U A47C C54U G84A", "polymerase ribozyme fitness (log ratio)": -1.86}, {"variant": "C14G U33C G84U G94A", "polymerase ribozyme fitness (log ratio)": -4.16}, {"variant": "C14G U53A C85G U90A A91U C99A C118A A120U", "polymerase ribozyme fitness (log ratio)": "≤ -4.2"}, {"variant": "C14U A17G G83A C108U", "polymerase ribozyme fitness (log ratio)": "≤ -4.2"}, {"variant": "C14G G50A G58C U82C G141C", "polymerase ribozyme fitness (log ratio)": -4.17}, {"variant": "C14G C18U U144C", "polymerase ribozyme fitness (log ratio)": -2.22}, {"variant": "C14U A20U A24U G42A A49C C57A A60C U104G C114A A115C", "polymerase ribozyme fitness (log ratio)": "≤ -4.2"}, {"variant": "C14U A19C C76U C99U", "polymerase ribozyme fitness (log ratio)": -3.03}, {"variant": "C14G A97U A98G", "polymerase ribozyme fitness (log ratio)": -2.74}, {"variant": "C14G U31G", "polymerase ribozyme fitness (log ratio)": -2.12}, {"variant": "C14U A26C G48C U53G C54A C93A U145A U148C", "polymerase ribozyme fitness (log ratio)": "≤ -4.2"}, {"variant": "C14U C18A A20C C93A G136A A142C", "polymerase ribozyme fitness (log ratio)": -2.57}, {"variant": "C14G U55G C57U G86C C125G A137U", "polymerase ribozyme fitness (log ratio)": "≤ -4.2"}, {"variant": "C14U A17U A24U C76A C85U", "polymerase ribozyme fitness (log ratio)": -3.79}, {"variant": "C14G C85U C96U A113C A122U G143A", "polymerase ribozyme fitness (log ratio)": "≤ -4.2"}, {"variant": "C14U C87U U102C", "polymerase ribozyme fitness (log ratio)": -4.18}, {"variant": "C14G C51U C96U", "polymerase ribozyme fitness (log ratio)": -3.1}, {"variant": "C14U A47C G84A", "polymerase ribozyme fitness (log ratio)": -2.49}, {"variant": "C14G C76G A89C C93G C95G U127G U151G", "polymerase ribozyme fitness (log ratio)": "≤ -4.2"}, {"variant": "C14G U82A G84A C87U C118G", "polymerase ribozyme fitness (log ratio)": -3.78}, {"variant": "C14G C18U A21G G86C C105U C129A U130C", "polymerase ribozyme fitness (log ratio)": "≤ -4.2"}, {"variant": "C14G A91U G143U", "polymerase ribozyme fitness (log ratio)": -3.88}, {"variant": "C14G U148A", "polymerase ribozyme fitness (log ratio)": -4.14}, {"variant": "C14U A17C C18G A20G G59U C85U A91U C118U G140A", "polymerase ribozyme fitness (log ratio)": "≤ -4.2"}, {"variant": "C14U C93U U127A C131A", "polymerase ribozyme fitness (log ratio)": "≤ -4.2"}, {"variant": "C14U C18G C32G A66C C93U A98U", "polymerase ribozyme fitness (log ratio)": "≤ -4.2"}, {"variant": "C14G G83U", "polymerase ribozyme fitness (log ratio)": -2.05}, {"variant": "C14G U56G C57U C63U C72U U151G", "polymerase ribozyme fitness (log ratio)": "≤ -4.2"}, {"variant": "C14U C27G A37U A39G A66C U77A U78G C85U A89U C95G", "polymerase ribozyme fitness (log ratio)": "≤ -4.2"}, {"variant": "C14G C85A C116U A122C", "polymerase ribozyme fitness (log ratio)": "≤ -4.2"}]}]}
